Test results: US12441790B2, “Binding proteins to the human thrombin receptor, PAR4” (MONASH UNIVERSITY, priority 2017, dated 2025)
“Also recorded” adds a separate entry of the source.

Columns and labels:
[1] = system: PAR4-120Ala and PAR4-120Thr variants; assay: PAR4 thrombin cleavage assay on PAR4 variants in HEK293T cells; assay type: cell-based, human; settings: for inhibition of thrombin cleavage of Ala120 and Thr120 PAR4 variants: pre-incubation 1, 10 or 100 μg/ml before thrombin
Procedure: 1×10^6 HEK293T cells (in Dulbecco's modified eagle's medium+10% foetal calf serum) were seeded onto 12-well plates 24 hours before transfection. When confluent, they were transiently transfected with 1 μg of DNA from one of the PAR4 variants (expression vectors pBJ-FLAG-PAR4-120A-296F or pBJ-FLAG-PAR4-120T-296F; Edelstein et al (2014) Blood 124(23):3450-8) plus 4 μL of Lipofectamine 2000, as per manufacturer's instructions. Forty-eight hours after transfection, cells were harvested and washed twice with PBS, then resuspended to a count of 1×10^6/mL. Cells (50 μL assays/0.5×10^5 cells per condition) were then pre-treated with either 1, 10 or 100 μg/mL of 5RC3 or sub-clone 5A.RC3.F10b.H4b or 100 μg/mL matched Isotype control (mouse IgG1) for 15 minutes at 37° C. Cells were then stimulated with 2 U/mL of thrombin for 10 minutes. The reaction was stopped by the addition of 4 U/mL hirudin. Cells were then washed once and resuspended with PBS containing a 1:200 dilution of FITC anti-FLAG antibody (Sigma, clone M2) and incubated for 1 hour at room temperature in the dark. Cells were then fixed with 1% paraformaldehyde (final concentration) and read on a FACSCalibur flow cytometer to determine % of FL1/FITC-Positive events. Data were normalised against the resting sample (100%, no thrombin treatment).
In order to determine whether the anti-PAR4 clones could inhibit the effects of thrombin on PAR4 cleavage, in vitro inhibition assays were performed. HEK293T cells were transiently transfected with the PAR4-120Ala (A) or PAR4-120Thr (T) variants which contained a FLAG epitope upstream of the thrombin cleavage site. Cleavage of PAR4 by thrombin was measured by loss of Flag tag from the PAR4 expressing HEK293 cells using flow cytometry.
Cells were stimulated with increasing doses of thrombin (0.1-2 U/ml) and the amount of thrombin cleavage was measured as a loss of FLAG epitope using a FITC-conjugated anti-FLAG antibody by flow cytometry.

[2] = system: hPAR4 peptides 1-9, 8-15 and 11-20; assay: Epitope mapping ELISA with overlapping hPAR4 peptides; assay type: binding, human; settings: peptides coated at 10 ug/ml
Procedure: Briefly the peptides were coated onto a Nunc maxisorp ELISA plate at 10 ug/ml overnight in coating buffer (0.1M sodium carbonate pH8.0). Purified mAbs diluted in PBS were used in place of supernatant.

human isolated platelets = assay: Binding to human platelets by flow cytometry; settings: 10 μg/ml, against isotype control
Procedure: Human or mouse washed platelets (5×10^7/mL) were incubated with anti-PAR4 antibody (0.1 mg/ml) for 30 mins at 37° C. and then fixed with paraformaldehyde 1% v/v final concentration). The suspension was then centrifuged at 1000×g for 2 min to obtain the platelet pellet, which was then resuspended in modified Tyrode's buffer (12 mM NaHCO3, 10 mM HEPES pH 7.4, 137 mM NaCl, 2.7 mM KCl, 5.5 mM D-glucose, 1 mM CaCl2) containing a 1:50 dilution of an FITC-conjugated […] IgG. After 30 mins at room temperature, the samples were centrifuged again, and the platelet pellet was resuspended in modified Tyrode's buffer an analysed by use of a flow cytometer (FACSCalibur, BD Biosciences).
Clone 5A.RC3 was tested for binding to isolated human platelets in vitro. Analysis of binding was determined using flow cytometry. Isolated platelets were incubated with either mouse IgG1 (isotype control) or 5A.RC3 and tested for binding to PAR4. CD41a which is a marker expressed on platelets was used as a positive control.
The binding of five anti-PAR4 monoclonal antibodies to human platelets was examined by flow cytometry.

PAR4 = target: T1, PAR4 (Homo sapiens, UniProt Q96RI0); assay: Functional bioassays for PAR4 inhibitory function; assay type: cell-based
T1 construct: host or cells: HEK293 cells transfected with FLAG-PAR4 and/or isolated human platelets
T1 sequence (Q96RI0 18-385): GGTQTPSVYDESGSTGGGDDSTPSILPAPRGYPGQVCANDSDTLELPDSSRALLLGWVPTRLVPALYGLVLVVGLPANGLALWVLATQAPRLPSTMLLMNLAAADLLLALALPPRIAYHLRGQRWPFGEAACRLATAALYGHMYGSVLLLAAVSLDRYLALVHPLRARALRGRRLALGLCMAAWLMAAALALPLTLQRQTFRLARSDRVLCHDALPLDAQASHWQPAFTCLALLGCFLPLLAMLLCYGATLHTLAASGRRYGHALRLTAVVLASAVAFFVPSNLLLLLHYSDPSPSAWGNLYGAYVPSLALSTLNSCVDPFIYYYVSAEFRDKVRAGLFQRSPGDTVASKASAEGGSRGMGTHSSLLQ

[3] = system: PAR4 peptide vs PAR1, PAR2 and PAR3 peptides; assay: ELISA specificity screening, PAR4 peptide vs PAR1, 2 or 3 peptide; assay type: binding, human; settings: hybridoma supernatant
Procedure: 96-well ELISA plates were coated with 50 μl of antigen diluted to a concentration of 4 μg/ml in coating buffer (0.1M Sodium Hydrogen Carbonate (NaHCO3) (Merck, #1.06329.0500)). Plates were incubated overnight at 4° C.
Wells were then washed with an automated plate washer (300 μl 1×PBS, 3 times). The wells were blocked with 200 μl of blocking buffer (3% BSA/1×PBS (BSA: (Sigma, #1001647742)) for 1 hour at room temperature followed by washing as above.
50 μl of undiluted hybridoma cell culture supernatant was added into appropriate wells and incubated at room temperature for 1 hour followed by washing as above. […] Wells were washed as above. A set of substrate tablets (1×silver, 1×gold) into 20 ml of ddH20 by shaking vigorously on the thermomixer for 6 mins at room temperature. 50 μl of substrate ([…]™ p-Nitrophenyl phosphate Tablets (Sigma-Aldrich, N2770-50SET)) was added into each well and incubated for 20-25 mins at room temperature. […] Absorbance was read at 405 nm immediately after adding STOP solution with the ELISA reader, using the ‘RdrOle4’ software.
Hybridoma supernatants were initially screened for binding to the immunising PAR4 peptide sequence ([…]-KLH (SEQ ID NO: 4)) by antigen microarray, with binding determined by fluorescence intensity signal over background (signal from medium alone). […]

B1: 5A.RC3: anti-PAR4 monoclonal antibody, IgG2a/K, VH SEQ ID NO:11 and VL SEQ ID NO:12 (antibody, V domains shown)
VH: QVQLVESGGGVVQPGRSLRLSCAASGFTLSNYGMHWVRQAPGKGLEWVSVIWYDGSNKHYADSVKGRFTISRDNSKNTLYLQMNSLRAEDTAVYYCARESIVEVLPPFDYWGQGTLVTVSS
VL: KIVLTQSPGTLSLSPGERVTLSCRASQRVRNNYLAWFQQKPGQAPRLFIYGASSRATGIPDRFSGSGSGTDFIFTISRLEPEDFAVYYCQQYGNSYTFGQGTKLEIK
modifications: VH of 5A.RC3; VL of 5A.RC3
reversal of inhibition by the immunising peptide [1]: reversed
inhibition of thrombin cleavage of Ala120 and Thr120 PAR4 variants [1]: near complete inhibition of thrombin cleavage; also recorded: significantly inhibited thrombin induced PAR4 cleavage
inhibition of thrombin cleavage of Ala120 and Thr120 PAR4 variants ([1]; listed as 5A.RC3.H4b): effectively inhibited cleavage of PAR4 expressed on the surface of HEK293 cells in a dose dependent manner
hPAR4 peptide the mAb reacted with [2]: amino acid residues 8-15
binding to PAR4 on isolated human platelets (human isolated platelets): binds human PAR4 in isolated platelets
PAR4 inhibitory (antagonist) function (PAR4): demonstrated PAR4 inhibitory function; also recorded: antagonist
selectivity to human PAR4 peptide over PAR1, PAR2 and PAR3 [3]: 16 fold
